The record followed here is the supplement of paper PMC5998384.

The test system of data set [1] is HeLa Kyoto. Kind of data set: solubility change mitosis vs G1/S (difference of NP-40 vs SDS log2 ratios) (log2 ratio difference); higher = more soluble in mitosis.
Data set [2] has as its system HeLa Kyoto. Kind of data set: melting temperature (median over replicates), in situ; higher = more thermally stable.
For data set [3], the system named is HeLa Kyoto. Kind of data set: thermal stability score vs G1/S (z-score of summed log2 fold changes over temperatures); higher = more thermally stable than in G1/S.
Data set [4] relates to HeLa Kyoto. Kind of data set: solubility in G1/S (NP-40 vs SDS abundance) (log2 ratio); higher = more soluble. Conditions: cell cycle stage: G1/S.
The mark [5] stands for this setting: cell cycle stage: early G1 (4.5 h after nocodazole release).
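Wherever melting temperature (median over replicates), in situ is given: HeLa Kyoto cells synchronized by double thymidine or nocodazole block, proteins quantified by TMT10plex mass spectrometry, three independent biological replicates.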
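Wherever solubility change mitosis vs G1/S (difference of NP-40 vs SDS log2 ratios) is given: synchronized HeLa Kyoto cells (double thymidine block for G1/S, nocodazole release for mitosis), protein amounts in NP-40 versus SDS lysates quantified by mass spectrometry, three biological replicates.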
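Wherever solubility in G1/S (NP-40 vs SDS abundance) is given: HeLa Kyoto cells arrested at G1/S by double thymidine block, proteins quantified by TMT10plex mass spectrometry in mild NP-40 versus SDS extracts, three biological replicates.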
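Wherever thermal stability score vs G1/S (z-score of summed log2 fold changes over temperatures) is given: synchronized HeLa Kyoto cells, proteins quantified by TMT10plex mass spectrometry, three biological replicates, mitosis taken 0.5 h after nocodazole release, G1/S directly after double thymidine block.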

Sequence of EZH2 (chain, as listed by the source): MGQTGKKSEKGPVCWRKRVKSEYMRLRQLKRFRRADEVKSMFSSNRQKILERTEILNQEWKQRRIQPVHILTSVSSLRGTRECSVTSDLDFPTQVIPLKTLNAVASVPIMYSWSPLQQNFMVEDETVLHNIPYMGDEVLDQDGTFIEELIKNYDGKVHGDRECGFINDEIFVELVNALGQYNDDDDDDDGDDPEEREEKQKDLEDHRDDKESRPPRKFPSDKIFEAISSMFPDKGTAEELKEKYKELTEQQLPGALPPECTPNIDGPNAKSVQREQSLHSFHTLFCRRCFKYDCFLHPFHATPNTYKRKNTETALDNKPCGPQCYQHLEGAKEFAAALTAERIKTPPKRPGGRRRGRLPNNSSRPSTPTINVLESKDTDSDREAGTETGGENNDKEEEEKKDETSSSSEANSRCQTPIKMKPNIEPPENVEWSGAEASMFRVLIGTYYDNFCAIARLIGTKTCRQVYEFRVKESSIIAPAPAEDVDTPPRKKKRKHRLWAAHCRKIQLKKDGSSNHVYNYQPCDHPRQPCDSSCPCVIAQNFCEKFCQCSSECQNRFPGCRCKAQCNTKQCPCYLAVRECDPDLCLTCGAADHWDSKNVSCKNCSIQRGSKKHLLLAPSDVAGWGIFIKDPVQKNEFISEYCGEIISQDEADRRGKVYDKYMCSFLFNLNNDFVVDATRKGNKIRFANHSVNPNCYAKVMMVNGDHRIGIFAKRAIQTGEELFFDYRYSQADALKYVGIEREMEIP

For the substance “MPKKFQGENTKSAAARARRAEAKAAADAKKQKELEDAYWKDDDKHVMRKEQRKEEKEKRRLDQLERKKETQRLLEEEDSKLKGGKAPRVATSSKVTRAQIEDTLRRDHQLREAPDTAEKAKSHLEVPLEENVNRRVLEEGSVEARTIEDAIAVLSVAEEAADRHPERRMRAAFTAFEEAQLPRLKQENPNMRLSQLKQLLKKEWLRSPDNPMNQRAVPFNAPK [CCDC124]”, the “solubility change mitosis (log2)” value in data set [1] came out at 0.537. The values for the melting temperature in data set [2] (cell cycle stage: G1/S) and in data set [2] (cell cycle stage: mitosis) were 57.1 °C and 53.7 °C, respectively. For the same substance, the thermal stability score was 0.653 in data set [3] (setting [5]) and -5.08 in data set [3] (cell cycle stage: mitosis). In addition, the “solubility in G1/S (log2)” value in data set [4] turned out to be 0.214.

Take “MRDRTHELRQGDDSSDEEDKERVALVVHPGTARLGSPDEEFFHKVRTIRQTIVKLGNKVQELEKQQVTILATPLPEESMKQELQNLRDEIKQLGREIRLQLKAIEPQKEEADENYNSVNTRMRKTQHGVLSQQFVELINKCNSMQSEYREKNVERIRRQLKITNAGMVSDEELEQMLDSGQSEVFVSNILKDTQVTRQALNEISARHSEIQQLERSIRELHDIFTFLATEVEMQGEMINRIEKNILSSADYVERGQEHVKTALENQKKARKKKVLIAICVSITVVLLAVIIGVTVVG [STX4]”: the “solubility change mitosis (log2)” value in data set [1] was 0.0104. Besides, the melting temperature in data set [2] (cell cycle stage: G1/S) was 51.2 °C; in data set [2] (cell cycle stage: mitosis) it was 50.5 °C. In addition, the thermal stability score in data set [3] (setting [5]) came out at 0.652; in data set [3] (cell cycle stage: mitosis), 0.313. In data set [4], the “solubility in G1/S (log2)” value came out at 0.326.

Turning to “MAQFDTEYQRLEASYSDSPPGEEDLLVHVAEGSKSPWHHIENLDLFFSRVYNLHQKNGFTCMLIGEIFELMQFLFVVAFTTFLVSCVDYDILFANKMVNHSLHPTEPVKVTLPDAFLPAQVCSARIQENGSLITILVIAGVFWIHRLIKFIYNICCYWEIHSFYLHALRIPMSALPYCTWQEVQARIVQTQKEHQICIHKRELTELDIYHRILRFQNYMVALVNKSLLPLRFRLPGLGEAVFFTRGLKYNFELILFWGPGSLFLNEWSLKAEYKRGGQRLELAQRLSNRILWIGIANFLLCPLILIWQILYAFFSYAEVLKREPGALGARCWSLYGRCYLRHFNELEHELQSRLNRGYKPASKYMNCFLSPLLTLLAKNGAFFAGSILAVLIALTIYDEDVLAVEHVLTTVTLLGVTVTVCRSFIPDQHMVFCPEQLLRVILAHIHYMPDHWQGNAHRSQTRDEFAQLFQYKAVFILEELLSPIVTPLILIFCLRPRALEIIDFFRNFTVEVVGVGDTCSFAQMDVRQHGHPQWLSAGQTEASVYQQAEDGKTELSLMHFAITNPGWQPPRESTAFLGFLKEQVQRDGAAASLAQGGLLPENALFTSIQSLQSESEPLSLIANVVAGSSCRGPPLPRDLQGSRHRAEVASALRSFSPLQPGQAPTGRAHSTMTGSGVDARTASSGSSVWEGQLQSLVLSEYASTEMSLHALYMHQLHKQQAQAEPERHVWHRRESDESGESAPDEGGEGARAPQSIPRSASYPCAAPRPGAPETTALHGGFQRRYGGITDPGTVPRVPSHFSRLPLGGWAEDGQSASRHPEPVPEEGSEDELPPQVHKV [ATG9A]”, in data set [1], the “solubility change mitosis (log2)” value was -0.221. The figures for the melting temperature in data set [2] (cell cycle stage: G1/S) and in data set [2] (cell cycle stage: mitosis) were 52 °C and 51.8 °C, respectively. The thermal stability score in data set [3] (setting [5]) is -1.02; in data set [3] (cell cycle stage: mitosis), -0.681. The “solubility in G1/S (log2)” value in data set [4] came out at 0.0202.

For “MSHLPMKLLRKKIEKRNLKLRQRNLKFQGASNLTLSETQNGDVSEETMGSRKVKKSKQKPMNVGLSETQNGGMSQEAVGNIKVTKSPQKSTVLTNGEAAMQSSNSESKKKKKKKRKMVNDAEPDTKKAKTENKGKSEEESAETTKETENNVEKPDNDEDESEVPSLPLGLTGAFEDTSFASLCNLVNENTLKAIKEMGFTNMTEIQHKSIRPLLEGRDLLAAAKTGSGKTLAFLIPAVELIVKLRFMPRNGTGVLILSPTRELAMQTFGVLKELMTHHVHTYGLIMGGSNRSAEAQKLGNGINIIVATPGRLLDHMQNTPGFMYKNLQCLVIDEADRILDVGFEEELKQIIKLLPTRRQTMLFSATQTRKVEDLARISLKKEPLYVGVDDDKANATVDGLEQGYVVCPSEKRFLLLFTFLKKNRKKKLMVFFSSCMSVKYHYELLNYIDLPVLAIHGKQKQNKRTTTFFQFCNADSGTLLCTDVAARGLDIPEVDWIVQYDPPDDPKEYIHRVGRTARGLNGRGHALLILRPEELGFLRYLKQSKVPLSEFDFSWSKISDIQSQLEKLIEKNYFLHKSAQEAYKSYIRAYDSHSLKQIFNVNNLNLPQVALSFGFKVPPFVDLNVNSNEGKQKKRGGGGGFGYQKTKKVEKSKIFKHISKKSSDSRQFSH [DDX18]”, the “solubility change mitosis (log2)” value in data set [1] came out at 1.1. Moreover, the melting temperature in data set [2] (cell cycle stage: G1/S) is 51 °C; in data set [2] (cell cycle stage: mitosis), 52 °C. Further, the thermal stability score is 1.68 in data set [3] (setting [5]) and 1.02 in data set [3] (cell cycle stage: mitosis). Moreover, the “solubility in G1/S (log2)” value in data set [4] was -2.49.

Regarding “MVEDELALFDKSINEFWNKFKSTDTSCQMAGLRDTYKDSIKAFAEKLSVKLKEEERMVEMFLEYQNQISRQNKLIQEKKDNLLKLIAEVKGKKQELEVLTANIQDLKEEYSRKKETISTANKANAERLKRLQKSADLYKDRLGLEIRKIYGEKLQFIFTNIDPKNPESPFMFSLHLNEARDYEVSDSAPHLEGLAEFQENVRKTNNFSAFLANVRKAFTATVYN [SPC25]”, in data set [1], the “solubility change mitosis (log2)” value came to 0.0937. Besides, the melting temperature in data set [2] (cell cycle stage: G1/S) came to 49.5 °C; in data set [2] (cell cycle stage: mitosis), 49.6 °C. In addition, the thermal stability score in data set [3] (setting [5]) is -0.881; in data set [3] (cell cycle stage: mitosis), -0.275. Further, the “solubility in G1/S (log2)” value in data set [4] came out at 0.585.

As to EZH2, the “solubility change mitosis (log2)” value in data set [1] amounted to 0.156. In addition, the figures for the melting temperature in data set [2] (cell cycle stage: G1/S) and in data set [2] (cell cycle stage: mitosis) were 49 °C and 49.9 °C, respectively. Further, the thermal stability score turned out to be 2.26 in data set [3] (setting [5]) and 4 in data set [3] (cell cycle stage: mitosis). For the same substance, the “solubility in G1/S (log2)” value in data set [4] was -0.621.

For “MQRLLFPPLRALKGRQYLPLLAPRAAPRAQCDCIRRPLRPGQYSTISEVALQSGRGTVSLPSKAAERVVGRWLLVCSGTVAGAVILGGVTRLTESGLSMVDWHLIKEMKPPTSQEEWEAEFQRYQQFPEFKILNHDMTLTEFKFIWYMEYSHRMWGRLVGLVYILPAAYFWRKGWLSRGMKGRVLALCGLVCFQGLLGWYMVKSGLEEKSDSHDIPRVSQYRLAAHLGSALVLYCASLWTSLSLLLPPHKLPETHQLLQLRRFAHGTAGLVFLTALSGAFVAGLDAGLVYNSFPKMGESWIPEDLFTFSPILRNVFENPTMVQFDHRILGITSVTAITVLYFLSRRIPLPRRTKMAAVTLLALAYTQVGLGISTLLMYVPTPLAATHQSGSLALLTGALWLMNELRRVPK [COX15]”, the “solubility change mitosis (log2)” value in data set [1] was -0.0819. The melting temperature in data set [2] (cell cycle stage: G1/S) turned out to be 56.5 °C; in data set [2] (cell cycle stage: mitosis), 57.9 °C. The thermal stability score in data set [3] (setting [5]) is -2.54; in data set [3] (cell cycle stage: mitosis), -1.54. In addition, the “solubility in G1/S (log2)” value in data set [4] is -0.208.
